Test results from US20240108738A1 (Bicycle, published 2024).
Numbered stars: 1 amine (or outer) side, 2 acyl side, 3 side chain; on linkers, the order of the positions; unused ones are H or OH. Bridge positions count the residues as written; N and C are the ends. Square brackets hold non-standard residues; d marks the D form. Ends that are not written are not given here. TATA = O=C(CC[*:1])N1CN(C(=O)CC[*:2])CN(C(=O)CC[*:3])C1; Trp(1-Me) = Cn1cc(C[C@H](N)C(=O)O)c2ccccc21; cisHyp = O=C(O)[C@@H]1C[C@H](O)CN1; Hyp = O=C(O)[C@@H]1C[C@@H](O)CN1; hArg = N=C(N)NCCCC[C@H](N)C(=O)O; tBuAla = CC(C)(C)C[C@H](N)C(=O)O; Cha = N[C@@H](CC1CCCCC1)C(=O)O; Agb = N=C(N)NCC[C@H](N)C(=O)O; Cba = N[C@@H](CC1CCC1)C(=O)O; Chg = N[C@H](C(=O)O)C1CCCCC1; Tle = CC(C)(C)[C@H](N)C(=O)O; NMeA = CN[C@@H](C)C(=O)O; Nle = CCCC[C@H](N)C(=O)O; Sar = CNCC(=O)O

B1: BCY18315 (peptide)
peptide: ACNLQAPC[Cba]LTGKVCA-NH2
modifications: linker 2-8-15 via TATA; N-terminus assumed
SMILES: CC(C)C[C@@H]1NC(=O)[C@H](CC(N)=O)NC(=O)[C@@H](NC(=O)[C@H](C)N)CSCCC(=O)N2CN3CN(C2)C(=O)CCSC[C@H](NC(=O)[C@@H]2CCCN2C(=O)[C@H](C)NC(=O)[C@H](CCC(N)=O)NC1=O)C(=O)N[C@@H](CC1CCC1)C(=O)N[C@@H](CC(C)C)C(=O)N[C@@H]([C@@H](C)O)C(=O)NCC(=O)N[C@@H](CCCCN)C(=O)N[C@@H](C(C)C)C(=O)N[C@H](C(=O)N[C@@H](C)C(N)=O)CSCCC3=O
notes: scaffold TATA
B2: BCY18291 (peptide)
peptide: ACDLTTHNCQWG[Chg]CA-NH2
modifications: linker 2-9-14 via TATA
notes: scaffold TATA
B3: BCY18289 (peptide)
peptide: ACDLTTHNCQWG[Tle]CA-NH2
modifications: linker 2-9-14 via TATA
notes: scaffold TATA
B4: BCY18326 (peptide)
peptide: ACNLQAPCMLTGK[Chg]CA-NH2
modifications: linker 2-8-15 via TATA; N-terminus assumed
SMILES: CSCC[C@@H]1NC(=O)[C@@H]2CSCCC(=O)N3CN(CN(C3)C(=O)CCSC[C@@H](C(=O)N[C@@H](C)C(N)=O)NC(=O)[C@H](C3CCCCC3)NC(=O)[C@H](CCCCN)NC(=O)CNC(=O)[C@H]([C@@H](C)O)NC(=O)[C@H](CC(C)C)NC1=O)C(=O)CCSC[C@H](NC(=O)[C@H](C)N)C(=O)N[C@@H](CC(N)=O)C(=O)N[C@@H](CC(C)C)C(=O)N[C@@H](CCC(N)=O)C(=O)N[C@@H](C)C(=O)N1CCC[C@H]1C(=O)N2
notes: scaffold TATA
B5: BCY18310 (peptide)
peptide: ACNLQA[cisHyp]CMLTGKVCA-NH2
modifications: linker 2-8-15 via TATA
notes: scaffold TATA
B6: BCY18294 (peptide)
peptide: Ac-ACNLQAPCMLTGKVCA-NH2
modifications: linker 2-8-15 via TATA (inferred)
notes: scaffold TATA
B7: BCY18312 (peptide)
peptide: ACNLQA[NMeA]CMLTGKVCA-NH2
modifications: linker 2-8-15 via TATA
notes: scaffold TATA
B8: BCY18307 (peptide)
peptide: ACN[tBuAla]QAPCMLTGKVCA-NH2
modifications: linker 2-8-15 via TATA
notes: scaffold TATA
B9: BCY18321 (peptide)
peptide: ACNLQAPCM[Cha]TGKVCA-NH2
modifications: linker 2-8-15 via TATA; also: Cha: filing contradicts itself on L or D
notes: scaffold TATA
B10: BCY18288 (peptide)
peptide: ACDLTTHNCQ[Trp(1-Me)]GICA-NH2
modifications: linker 2-9-14 via TATA; N-terminus assumed
SMILES: CC[C@H](C)[C@@H]1NC(=O)CNC(=O)[C@H](Cc2cn(C)c3ccccc23)NC(=O)[C@H](CCC(N)=O)NC(=O)[C@@H]2CSCCC(=O)N3CN(CN(C3)C(=O)CCSC[C@@H](C(=O)N[C@@H](C)C(N)=O)NC1=O)C(=O)CCSC[C@H](NC(=O)[C@H](C)N)C(=O)N[C@@H](CC(=O)O)C(=O)N[C@@H](CC(C)C)C(=O)N[C@@H]([C@@H](C)O)C(=O)N[C@@H]([C@@H](C)O)C(=O)N[C@@H](Cc1c[nH]cn1)C(=O)N[C@@H](CC(N)=O)C(=O)N2
notes: scaffold TATA
B11: BCY18325 (peptide)
peptide: ACNLQAPCMLTGK[Tle]CA-NH2
modifications: linker 2-8-15 via TATA
notes: scaffold TATA
B12: BCY18320 (peptide)
peptide: ACNLQAPCM[tBuAla]TGKVCA-NH2
modifications: linker 2-8-15 via TATA
notes: scaffold TATA
B13: BCY18324 (peptide)
peptide: ACNLQAPCMLTG[Agb]VCA-NH2
modifications: linker 2-8-15 via TATA; N-terminus assumed
SMILES: CSCC[C@@H]1NC(=O)[C@@H]2CSCCC(=O)N3CN(CN(C3)C(=O)CCSC[C@@H](C(=O)N[C@@H](C)C(N)=O)NC(=O)[C@H](C(C)C)NC(=O)[C@H](CCNC(=N)N)NC(=O)CNC(=O)[C@H]([C@@H](C)O)NC(=O)[C@H](CC(C)C)NC1=O)C(=O)CCSC[C@H](NC(=O)[C@H](C)N)C(=O)N[C@@H](CC(N)=O)C(=O)N[C@@H](CC(C)C)C(=O)N[C@@H](CCC(N)=O)C(=O)N[C@@H](C)C(=O)N1CCC[C@H]1C(=O)N2
notes: scaffold TATA
B14: BCY18328 (peptide)
peptide: ACNLQAPCMLTG[hArg]VCA-NH2
modifications: linker 2-8-15 via TATA; N-terminus assumed
SMILES: CSCC[C@@H]1NC(=O)[C@@H]2CSCCC(=O)N3CN(CN(C3)C(=O)CCSC[C@@H](C(=O)N[C@@H](C)C(N)=O)NC(=O)[C@H](C(C)C)NC(=O)[C@H](CCCCNC(=N)N)NC(=O)CNC(=O)[C@H]([C@@H](C)O)NC(=O)[C@H](CC(C)C)NC1=O)C(=O)CCSC[C@H](NC(=O)[C@H](C)N)C(=O)N[C@@H](CC(N)=O)C(=O)N[C@@H](CC(C)C)C(=O)N[C@@H](CCC(N)=O)C(=O)N[C@@H](C)C(=O)N1CCC[C@H]1C(=O)N2
notes: scaffold TATA
B15: BCY18293 (peptide)
peptide: Ac-CNLQAPCMLTGKVC-NH2
modifications: linker 1-7-14 via TATA (inferred)
notes: scaffold TATA
B16: BCY18314 (peptide)
peptide: ACNLQAPC[Nle]LTGKVCA-NH2
modifications: linker 2-8-15 via TATA
notes: scaffold TATA
B17: BCY15099 (peptide)
peptide: ACNLQAPCMLTGKVCA-NH2
modifications: linker 2-8-15 via TATA; also: scaffold TATA, TATB or TBMT
notes: scaffold TATA
B18: BCY18322 (peptide)
peptide: ACNLQAPCMLT[dA]KVCA-NH2
modifications: linker 2-8-15 via TATA (inferred)
notes: scaffold TATA
B19: BCY18303 (peptide)
peptide: ACNLQAPCMLTAKVCA-NH2
modifications: linker 2-8-15 via TATA; also: scaffold TATA, TATB or TBMT
notes: scaffold TATA
B20: BCY18305 (peptide)
peptide: ACNLQAPCMLTGKACA-NH2
modifications: linker 2-8-15 via TATA; also: scaffold TATA, TATB or TBMT
notes: scaffold TATA
B21: BCY18317 (peptide)
peptide: ACNLQAPCMFTGKVCA-NH2
modifications: linker 2-8-15 via TATA; also: scaffold TATA, TATB or TBMT
notes: scaffold TATA
B22: BCY18323 (peptide)
peptide: ACNLQAPCMLTGRVCA-NH2
modifications: linker 2-8-15 via TATA; also: scaffold TATA, TATB or TBMT
notes: scaffold TATA
B23: BCY18313 (peptide)
peptide: ACNLQAPCLLTGKVCA-NH2
modifications: linker 2-8-15 via TATA; also: scaffold TATA, TATB or TBMT
notes: scaffold TATA
B24: BCY18290 (peptide)
peptide: ACDLTTHNCQWG[tBuAla]CA-NH2
modifications: linker 2-9-14 via TATA
notes: scaffold TATA
B25: BCY18309 (peptide)
peptide: ACNLQA[Sar]CMLTGKVCA-NH2
modifications: linker 2-8-15 via TATA; N-terminus assumed
SMILES: CSCC[C@@H]1NC(=O)[C@@H]2CSCCC(=O)N3CN(CN(C3)C(=O)CCSC[C@@H](C(=O)N[C@@H](C)C(N)=O)NC(=O)[C@H](C(C)C)NC(=O)[C@H](CCCCN)NC(=O)CNC(=O)[C@H]([C@@H](C)O)NC(=O)[C@H](CC(C)C)NC1=O)C(=O)CCSC[C@H](NC(=O)[C@H](C)N)C(=O)N[C@@H](CC(N)=O)C(=O)N[C@@H](CC(C)C)C(=O)N[C@@H](CCC(N)=O)C(=O)N[C@@H](C)C(=O)N(C)CC(=O)N2
notes: scaffold TATA
B26: BCY18311 (peptide)
peptide: ACNLQA[Hyp]CMLTGKVCA-NH2
modifications: linker 2-8-15 via TATA
notes: scaffold TATA
B27: BCY18319 (peptide)
peptide: ACNLQAPCM[Cba]TGKVCA-NH2
modifications: linker 2-8-15 via TATA
notes: scaffold TATA

Target: T1, Human NKp46 Fc tag (Acro Biosystems, NC1-H5257) (human, UniProt O76036 22-255)
T1 construct: bought; also called Fc-tagged human NKp46
Test: SPR Method 1 and/or 2
Protocol: The SPR analysis was run at 25° C. and a flow rate of 50 μl/min with 60 seconds association and 200-400 seconds dissociation time. Data were corrected for DMSO excluded volume effects. All data were double-referenced for blank injections and reference surface using standard processing procedures and data processing and kinetic fitting were performed using Scrubber software, version 2.0c (BioLogic Software). Data were fitted using simple 1:1 binding model allowing for mass transport effects where appropriate.
For analysis of peptide binding, a Biacore 8k+ instrument was used with a CM5 chip (Cytiva). All experiments were carried out at 25° C. Anti-human IgG (Fc) antibody (Cytiva) was immobilized on all flow cells by standard amine coupling chemistry. The running buffer was HBS-N(Cytiva, 10 mM HEPES, 0.15 M NaCl, pH 7.4) and the flow rate was 10 μL/min. The carboxymethyl dextran surface was activated with a 1:1 ratio of 0.4 M 1-ethyl-3-(3-dimethylaminopropyl) carbodiimide hydrochloride (EDC)/0.1 M N-hydroxy succinimide (NHS) (Cytiva) for 420s. […] Residual activated groups were blocked with a 420 s injection of 1 M ethanolamine (pH 8.5). The final surface density was 3000-5000 RU. Fc-tagged human NKp46 was diluted to 0.1 μM in HBS-N and was captured on flow cell 2 only of the sensor chip at a flow rate of 10 μL/min to 500-1000 RU. The buffer was then changed to PBS-P+(Cytiva) supplemented with 2% DMSO. […] The flow rate was 50 μL/min with 60 s association and 400 s dissociation. Data were corrected for DMSO volume exclusion effects. All data were double-referenced against blank injections and reference surface response using standard processing procedures. Data processing and kinetic fitting was performed using Biacore Insight Evaluation Software with Extended Screening and Characterization Extension (Cytiva). Data were fitted using steady state affinity 1:1 binding model to determine KD. Data were fitted using kinetic 1:1 binding model to determine kinetic constants where appropriate.

T1 sequence (O76036 22-255 limits assumed): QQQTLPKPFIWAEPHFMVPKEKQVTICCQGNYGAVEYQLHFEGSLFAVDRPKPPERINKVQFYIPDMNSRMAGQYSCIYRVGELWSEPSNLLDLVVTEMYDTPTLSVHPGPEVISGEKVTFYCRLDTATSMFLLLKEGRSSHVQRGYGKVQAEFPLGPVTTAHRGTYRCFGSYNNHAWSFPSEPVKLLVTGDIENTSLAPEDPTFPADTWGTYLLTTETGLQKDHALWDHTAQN

Kd	Binder
878 nM	B1
2850 nM	B2
572 nM	B3
2780 nM	B4
802 nM	B5
3260 nM	B6
1810 nM	B7
2110 nM	B8
548 nM	B9
354 nM	B10
854 nM	B11
622 nM	B12
1500 nM	B13
887 nM	B14
3380 nM	B15
3150 nM	B16
1120 nM	B17
466 nM	B18
2750 nM	B19
907 nM	B20
2080 nM	B21
2340 nM	B22
2750 nM	B23
4890 nM	B24
2570 nM	B25
795 nM	B26
991 nM	B27
